Each block holds one molecule with its values, some of them ahead of it.
Columns and labels:
[1] = system: LPS mediated TNFα stimulation of rat macrophages / spleen cells; experiment: Rat in vitro LPS model; type: cell-based; settings: FIG. 41
Procedure: Rat or mouse peritoneal or spleen cell suspensions were prepared from female Lewis rats (Harlan) or BalB/cA mice (Taconic). Human mononuclear cells were isolated from buffycoats (Skejby University Hospital) as described above. The purified cells were suspended in RPMI medium supplemented with 10% FCS and 2 mM L-glutamine and cultured (2×10^5 per well) overnight in 96-well flat bottomed plates (125 μl per well) at 37° C. and 5% CO2. Glucocorticoid conjugates (Example 8), free glucocorticoids or PBS were serial diluted in supplemented RPMI medium and added (100 μl) to the overnight cell cultures at final concentrations ranging from 1-10^−7 μg glucocorticoid/ml. After incubation for a specific time ranging from 30 min-24 hours, 150 μl supernatant was carefully aspirated and 150 μl supplemented RPMI medium added to the wells before further incubation overnight. Each incubation condition was tested in duplicates or triplicates. After 16-20 hours, the cells were challenged with lipopolysaccharide (LPS) (250 ng/ml) for 4 hours before supernatant was aspirated from each well and frozen at -20° C.

[2] = system: LPS mediated TNFα stimulation; experiment: Rat in vivo LPS model; set-up: species or system Lewis rats; settings: i.v., challenged with LPS, FIG. 41
CD163 [3] = target: T1, CD163 (Homo sapiens, UniProt Q86VB7); experiment: Surface plasmon resonance (Biacore) analysis of mAb binding to immobilized CD163; settings: in both 2 mM free Ca2+ and 10 mM EDTA
T1 sequence (Q86VB7 42-1156): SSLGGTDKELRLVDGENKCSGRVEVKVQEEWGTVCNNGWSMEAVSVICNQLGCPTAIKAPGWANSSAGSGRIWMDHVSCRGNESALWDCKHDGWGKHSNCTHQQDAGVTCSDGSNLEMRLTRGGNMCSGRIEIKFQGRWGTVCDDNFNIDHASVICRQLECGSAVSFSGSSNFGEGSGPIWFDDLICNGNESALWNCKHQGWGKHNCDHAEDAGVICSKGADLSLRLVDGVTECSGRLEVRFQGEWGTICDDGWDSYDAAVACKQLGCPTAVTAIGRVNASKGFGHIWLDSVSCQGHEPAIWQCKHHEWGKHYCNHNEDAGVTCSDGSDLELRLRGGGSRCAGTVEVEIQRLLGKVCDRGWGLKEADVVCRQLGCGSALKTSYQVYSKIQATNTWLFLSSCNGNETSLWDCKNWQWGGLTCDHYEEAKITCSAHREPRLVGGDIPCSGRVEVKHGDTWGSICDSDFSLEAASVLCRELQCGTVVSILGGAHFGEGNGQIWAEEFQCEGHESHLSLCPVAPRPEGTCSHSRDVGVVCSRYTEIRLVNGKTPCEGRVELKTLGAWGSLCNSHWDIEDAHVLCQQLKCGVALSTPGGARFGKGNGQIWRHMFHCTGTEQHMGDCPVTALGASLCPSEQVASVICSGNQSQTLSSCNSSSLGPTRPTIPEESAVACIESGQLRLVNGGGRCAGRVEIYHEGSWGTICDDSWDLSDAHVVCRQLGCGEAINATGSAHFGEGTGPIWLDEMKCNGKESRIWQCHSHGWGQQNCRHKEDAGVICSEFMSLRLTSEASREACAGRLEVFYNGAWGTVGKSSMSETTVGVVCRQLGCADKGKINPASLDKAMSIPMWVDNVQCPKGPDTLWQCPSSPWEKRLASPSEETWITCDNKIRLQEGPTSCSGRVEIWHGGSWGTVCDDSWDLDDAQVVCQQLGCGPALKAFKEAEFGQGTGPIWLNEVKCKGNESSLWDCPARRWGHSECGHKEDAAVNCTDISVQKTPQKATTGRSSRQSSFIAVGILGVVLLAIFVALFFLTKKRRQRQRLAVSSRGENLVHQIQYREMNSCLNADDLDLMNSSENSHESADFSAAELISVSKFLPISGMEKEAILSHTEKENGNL
Procedure: (§1) SPR analysis of the binding of mAbs to CD163 was carried out on a Biacore 2000 instrument (Biacore, Uppsala, Sweden). The Biacore sensor chips (type CM5) were activated with a 1:1 mixture of 0.2 M N-ethyl-N′-(3-dimethylaminopropyl) carbodiimide and 0.05 M N-hydroxysuccimide in water. Purified recombinant CD163 were immobilized in 10 mM sodium acetate, pH 4.0, and the remaining binding sites were blocked with 1 M ethanolamine, pH 8.5. The SPR signal generated from immobilized recombinant CD163 proteins corresponded to 40-70 fmol of protein/mm^2. Sensorgrams were generated using mAb concentrations ranging from 5-100 nM. The flow cells were regenerated with 1.6 M glycine-HCl, pH 3. The running buffer used for the experiment was either CaHBS 10 mM Hepes, 150 mM NaCl, 3.0 mM CaCl2, 1.0 mM EGTA, and 0.005% Tween 20, […], and 0.005% Tween 20, pH 7.4, mAb samples were dissolved in the same buffer as the running buffer used. All binding data were analyzed using the Biamolecular Interaction Analysis evaluation program version 3.1.
as §1, with “7.4, KN2/NRY and Mac-158” for “7.4, mAb”, “buffer used at a concentration of 5 μg/ml.” for “buffer used.”

[4] = target: T2, CD163 transfected Flp-In CHO cells (Homo sapiens, UniProt Q86VB7); experiment: Cellular binding and uptake (endocytosis) of 125I-labeled anti-CD163; type: cell-based
T2 construct: Stably transfected Chinese hamster ovary (CHO) cells expressing the full-length human CD163; expressed in transfected cells
T2 sequence (Q86VB7 42-1156): as above
Procedure: Monocytes were isolated from PBMC by negative selection using magnetic beads from Dynal (Dynabeads® MyPure™ Monocyte Kit 2; Invitrogen A/S, Taastrup, Denmark) according to instructions provided by the manufacturer. Monocyte preparations were more than 95% (CD14^+) pure determined by flow cytometry. The isolated cells were washed twice with phosphate-buffered saline. Monocyte-derived macrophages (MDMs) were prepared by cell culture of monocytes (approximately 1×10^7 cells) for 4 days in 5% CO2 and 37° C. in RPMI 1640 media (RPMI 1640+25 mM HEPES+I-glutamine) (Invitrogen Corporation, Carlsbad, Calif., USA) with 20% FCS containing 100 ng/ml of M-CSF. MDMs were then detached from the flask by incubation with cell dissociation buffer (Invitrogen A/S, Taastrup, Denmark) for 30 minutes at 4 °C, then flushed, and scraped. The cells were then cultured for 24 hours in RPMI 1640 media (RPMI 1640+25 mM HEPES+I-glutamine) (Invitrogen Corporation, Carlsbad, Calif., USA) supplemented with 20% FCS containing 100 ng/ml of M-CSF at 37° C. in 95% air and 5% CO2 in Lab-Tek™ Chamber Slides (Thermo Fisher Scientific, Roskilde, Denmark). 200 nM dexamethasone (Merck KGaA, Darmstadt, Germany) was added during culture to increase CD163 expression. Stably transfected Chinese hamster ovary (CHO) cells expressing the full-length human CD163, as described above, were cultured in serum-free CHO medium (HyQ-CCM, HyClone, Logan, Utah) containing 300 μg/ml Hygromycin B, as previously described (2).
Endocytosis of ^125I-labeled anti-CD163 was investigated in CD163 transfected Flp-In Chinese hamster ovary (CHO) cells and mock-transfected Flp-In as described (Madsen, M., Moller, H. J., Nielsen, M. J., Jacobsen, C., Graversen, J. H., van den Berg, T. and Moestrup, S. K. (2004) Molecular characterization of the haptoglobin.hemoglobin receptor CD163. Ligand binding properties of the scavenger receptor cysteine-rich domain region. J. Biol. Chem., 279, 51561-51567.)

[5] = target: T3, CHO cells expressing CD163 (Homo sapiens, UniProt Q86VB7); experiment: CD163 antibody binding and uptake in CHO cells expressing CD163 (confocal microscopy); type: cell-based; settings: 0 or 30 minutes, FIG. 7
T3 construct: Stably transfected Chinese hamster ovary (CHO) cells expressing the full-length human CD163; expressed in transfected cells
T3 sequence (Q86VB7 42-1156): as above
Procedure: Monocytes were isolated from PBMC by negative selection using magnetic beads from Dynal (Dynabeads® MyPure™ Monocyte Kit 2; Invitrogen A/S, Taastrup, Denmark) according to instructions provided by the manufacturer. Monocyte preparations were more than 95% (CD14^+) pure determined by flow cytometry. The isolated cells were washed twice with phosphate-buffered saline. Monocyte-derived macrophages (MDMs) were prepared by cell culture of monocytes (approximately 1×10^7 cells) for 4 days in 5% CO2 and 37° C. in RPMI 1640 media (RPMI 1640+25 mM HEPES+I-glutamine) (Invitrogen Corporation, Carlsbad, Calif., USA) with 20% FCS containing 100 ng/ml of M-CSF. MDMs were then detached from the flask by incubation with cell dissociation buffer (Invitrogen A/S, Taastrup, Denmark) for 30 minutes at 4 °C, then flushed, and scraped. […]
MDMs or CHO cells were washed with 4° C. cold D-PBS, pH 7.4, containing 1% BSA in Lab-Tek™ Chamber Slides (Thermo Fisher Scientific, Roskilde, Denmark). […] Fluorescence was visualized using a Zeiss Axiovert 200M microscope (Carl Zeiss GmbH, Jena, Germany) with an ×100 oil-immersion objective. […] Alternatively, immunostained cells were analyzed by confocal immunofluorescence microscopy using a Zeiss LSM-510 confocal microscope (Carl Zeiss GmbH, Jena, Germany). […]

CD163 [6] = target: T1, CD163; experiment: Competition of binding to Mac2-158 epitope (SPR on Mac2-158 saturated CD163 chip); settings: 2 mM free calcium buffer, mAb 5 μg/ml
Procedure: To evaluate if there is competition in the binding of a range of mAbs to CD163 we first saturated the CD163-chip with Mac2-158 by injecting 50 μL of 50 μg/ml Mac2-158 and subsequently injecting relevant mAbs in 5 μg/ml. The binding buffer was CaHBS 10 mM Hepes, 150 mM NaCl, 3.0 mM CaCl2, 1.0 mM EGTA, and 0.005% Tween 20, pH 7.4.

CD163 [7] = target: T1, CD163; experiment: scFv ELISA; type: binding; settings: for ELISA signal: PBS, read at 450 nm
Procedure: A nunc Maxisorp ELISA plate (NUNC, Roskilde, Denmark) was coated with 50 μl/well of 2 μg/ml of CD163 (purified as described in (2)) over night at 4° C. The coated plate was washed 3 times in PBS and blocked for 1 hour with 3% BSA in PBS. Fractions from scFv purification were tested by adding 100 μl/well of a 1:10 dilution of each sample in 1% BSA, PBS. The refolded protein sample was added directly to the wells (100 μl/well) and two-fold dilution series was made with dilution in 1% BSA in PBS. After 1 hour incubation at 4° C. the plate was washed 3 times in PBS again. Secondary detection was made with a 1 hour incubation of a HRP conjugated anti-His antibody (Sigma-Aldrich, Brøndby, Denmark) (1:4000 diluted in 1% BSA, PBS). After washing 3 times in PBS the ELISA was developed with […] TMB substrate (Invitrogen, Taastrup, Denmark). The reaction was stopped with 40 μl/well of 1 M H2SO4 and the plate was read in an ELISA reader at 450 nm.

Molecule: CC1(C)O[C@@H]2C[C@H]3[C@@H]4C[C@H](F)C5=CC(=O)C=C[C@]5(C)[C@@]4(F)[C@@H](O)C[C@]3(C)[C@]2(C(=O)CO)O1 [fluocinolone-acetoniode, Fluocinolone acetonide]
suppressive in vitro effect compared to prednisolone [1]: significantly higher
TNFα level lower compared to vehicle [2]: 5 times

Molecule: C[C@]12C=CC(=O)C=C1CC[C@@H]1[C@@H]2[C@@H](O)C[C@@]2(C)[C@H]1CC[C@]2(O)C(=O)CO [prednisolone]
TNFα level lower compared to vehicle [2]: 5 times

Results, then the molecule that gave them:

affinities for CD163 (CD163 [3]): nanomolar or sub-nanomolar range
time course of cell-associated radioactivity (bound or internalized) ([4]; 125I-labelled mAb, increasing time points): did not reach a plateau
cellular uptake and binding to CD163-expressing cells ([4]; compared with the other tested antibodies, FIG. 5): considerably higher
binding and uptake [5]: best binding and uptake
binding to CD163-Fc saturated with Mac2-158 (CD163 [6]): not able to bind
B1: Mac2-48: anti-human CD163 murine mAb, IQ Products; VH SEQ ID NO: 3, VL SEQ ID NO: 4 (antibody, V domains shown)
VH: DVQLQESGPGLVKPSQSLSLTCTVTGYSITSDYAWNWIRQFPGNKLEWMGFISYSGITSYNPSLKSRISITRDTSKNQFFLQLNSVTTEDSATYYCVSGTYYFDYWGQGTTLTVSS
VL: SIVMTQTPKFLLVSAGDRVTITCKASQSVSHDVSWFQQKPGQSPKLLIYYTSNRYTGVPDRFTGSGYGTDFTFTISTVQAEDLAIYFCQQDYSSPRTFGGGTKLEIKRA
modifications: Mac2-48 VH; Mac2-48 VL

dilution down to which binding signals to CD163 were detected (CD163 [7]; 2 fold dilution series): 128 fold
ELISA signal (CD163 [7]; 64 fold dilution in 1% BSA): 0.29
ELISA signal (CD163 [7]; 128 fold dilution in 1% BSA): 0.15
B2: refolded scFv: scFv (VH-15 residue linker-VL), SEQ ID NO: 56, expressed in E. coli and refolded (protein)
scFv: MDQVQLQESGPGLVKPSETLSLTCTVSGYSITSDYAWNWIRQFPGNKLEWMGYITYSGSTYYNPSLKSRVTISVDTSKNQFSLKLSSVTAADTATYYCVSGTYYFDYWGQGTTLTVSSGGGGSGGGGSGGGGSDIVMTQSPSSLSASVGDRVTITCRASQSVSSDVAWFQQKPGKSPKPLIYYASNRYSGVPSRFSGSGSGTDFTLTISSLQAEDFAVYFCGQDYTSPRTFGGGTKLEIKREQKLISEEDL
modifications: scFv sequence

Source: US20170119790A1, “Agents, Uses and Methods” (CYTOGUIDE A/S, priority 2009, published 2017)
